The nanobody polyreactivity screen of Harvey et al. (2022)

Experiment: yeast display, Sf9 membrane polyspecificity reagent, FACS + sequencing; frameworks hold sequencing errors
How it was run: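 Sorting gates, low and high (top ~1%), were placed on anti-HA fluorescence to track expression and on streptavidin fluorescence to track reagent binding. A clone's polyreactivity label is taken from the gate it came out of. The reagent was 10% biotinylated, detergent-solubilized Sf9 membrane, applied for 1 hour at 4 °C to galactose-induced yeast display cells.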

Sequence | polyreactivity (PSR sort gate)
QVQLVESGRGLFHAGGSLRLSCAASGNTFGKYDMGWSIQAPGKERELVAAISKSSGSTYYADSVKGRFTISRDNAKNTVYFQMNSLKPEDTAVYYCAAEAYRYAWYDYWGQGTQVTVSS | high polyreactivity
QVQLVESGGGLVQAGGSLRLSCAASGRIFDPNAMGWYRQAPGKERELVAAISSRSGSTFYADSVKGRFTISRDNAKNTVYLQMNSLKPEDTAVYYCAAVYRFYKHNYWGQGTQVTVSS | high polyreactivity
QVQLVESGGGLVQAGGSLRLSCAASGGTFVTYTMAWYRQAPGKEREFVAAISRSGGSTYYADSVKGRFTISRDNAKNTVYLQMNSLKPEDTAVYYCATRGRYYGPGYDYWGQGTQVTVSS | high polyreactivity
QVQLVESGGGLVQAGGSLRLSCAASGFIFGRYAMGWYRQAPGKERELVAAISRGGGSTRYADSVKGRFTISRDNAKNTVYLQMKSLKPEDTAVYYCAAYRYWGRTSYSYDYWGQGTQVTVSS | high polyreactivity
QVQLVESGGGLVQAGGSLRLSCAASGRTFPGYAMGWYRQAPGKERELVAAISWSGTSTYYADSVKGRFTISRDNAKNTVYLQMNSLKPEDTAVYYCNKVYTYSAPYYYWGQGTQVTVSS | high polyreactivity
QVQLVESGGGLVQAGGSLRLSFAASGSIFPVYAMGWYKQAPGKERELVAAITTAGRTYYADSVKGRFTISRDNAKNTVYLQMNSLKPEDTAVYYCNARSRKVLTVDGGYWGQGTQVTVSS | high polyreactivity
QVQLEESGGGLVQAGGSLRISCAAYGRTLRQYALGWYRQAPGKERELVAAISRGGSTTYADSVKGRFTISRDNAKNTVYLQMNSLKPEDTAVYYCAAVSSKGNRHEYDYWGQGTQVTVSS | low polyreactivity
QVQLVESGGGLVQAGGSLRLSCAASGITFRFNAMGWYRQAPGKEREFVAAITYSGDSTYYADSVKGRFTISRDNAKNTVYLQKNSLKPEDTAVYYCAADYYAISRRIFYYWGQGTQVTVSS | low polyreactivity
QVQLVESGGGLVQAGGSLRLSCAASGSTFRYNAMGWYRQAPGKERELVAAITSGGTTNYADSVKGRFTISRDNAMNTVYLQMNILKPEDTAVYYCGKRGYYWTNLLYFLGYDYWGQGTQVTVSS | low polyreactivity
QVQLVESGGGLVQAGGSLRLSCAASGLKFGVNPMGWYRPAPGKERELVAAISRDSDTNYADSVKGRFTISRDNAKNTVYLQMISLKPEDTAVYYFNAYSEWPVPSPPRSQSLDYWGQGTQVTVSS | low polyreactivity
QVQLVESGGGLVQAGGSLRLSCAASGLICTPYAMGWYRQSPGKERELVAAISVSGGRTYYADSVKGRFTISRDNAKNTVYLQMNSLKREDTAVYYCAAALPYGYEYWGQGTQVTVSS | high polyreactivity
QVQLVESGGALVQAGGSLRLSCAASRITFTDNAMGWYRQAPGKERELVAAISSGASTYYADSVKGRFTISRDNAKNTVYLQMNSLKPEDSAVYYCATRQTYNYPWHYRYYYWGQGTQVTVSS | high polyreactivity
QVQLVESGGGLVQAGGSLRLSCAASGIIFYYNTMGWYRQAPGKERELVAAISQRGGSTYYADSVKGRFTISRDNAKNTVYLQMNSLKPEDTAVYYCNKLRNSHGFRYDYWGQGTQVTVSS | high polyreactivity
QVQLVESGGGLVQAGGSLRLSCASSGSTFYGNAMGWYRQAPGKERELVATISSGGSTDYADSVKGRFTISRDNAKNTVYLQMNSLKPEDTAVYYCATDNYLGYYYKDGVLDDYWGQGTQVTVSS | low polyreactivity
QVQLVESGGGLVQAGGSLRLSCAASGRIFFYYAMGWYRQAPGKERELVAAISSGGGSTYYADSVKGRFTISRDNAKNTVYLQMNSLKPEDTAVYYCAARTYRRRYLGWSQYVGPYDYWGQVTQVTVSS | high polyreactivity
QVQLVESGGGLVQAGGSLRLSCAASGRTSSTYDMGWYRQAPGKERELVADITWSGGSTYYADSVKGRFTISRDNAKNTVYLQMNRLKPEDTAVYYCAAPFVKFVGSLVYAGYDSWGQGTQVTVSS | low polyreactivity
QVQLVESGGGLVQAGGSLRLSCAASGRTFSNYAMGWYRQAPGKERELVAAISQRGGSTYYADSVKGRFTISRDNAKNTVYLLMNSLKPEDTAVYYCNARQTTATGGTGNYWGQGTQVTVSS | high polyreactivity
QVQLVESGGGLVQAGGSLRLSCAASGRIFGINARGWYRPAPGKERELVAAINWSGGSTYYADSVKGRFTISRDNAKNTVYLHMNSLKPEDTAVYYCAADFYRRYYRYGYWGQGTQVTVSS | high polyreactivity
QVQLVESGGGLVQAGGSLRLSCADSGSTFWFYTMGWYRQAPGKERELVATITSGGSTNYADSVKGRFTISRDNAKNTVYLQMNSLKPEDTAVYYCAASSVLTNHDYWGQGTQVTVSS | low polyreactivity
QVQLLESGGGLVQAGGTLRLSCAASGITFTVYTMGWYRQAPGKERELVAAIDSDGITNYADSVKGRFTISRDNAKNTVYLQMNSLKPEDTAVYYCAKQSGRADGVSGFDYWGQGTQVTVSS | low polyreactivity
QVQVVESGGGLVQAGGSLRLSCAASGRTFTRYAMGWYRQAPGKERELVATITRGGSTNYADSVKGRFTISRDNAKNTVYLQMNSLKPEDTAVYYCAAGYFIRTRSRYRYDYWGQGTQVTVSS | high polyreactivity
QVQLVESGGVLVQAGGSLRLSCAASGRILFSYGMGWYRQATGKERELVARISWSGGNTHYADSVKGRFTISRDNAKNTVYLQMNSLKPEDTAVYYCNAYYTYWYPRYDYWGQGTQVTVSS | low polyreactivity

Sequence | polyreactivity (PSR sort gate)
QVQLVESGGGLVQAGGSLRLSCAASGFIFRWYAMGWYRQAPGKERELVAGISASGGSTYYADSVKGRFTISRDNAKNTVYLQMNSLKPEDTAVYYCAAYRRNSRWELDYWGQGTQVTVSS | high polyreactivity
QVQLVESGGGLVQAGGSLRLSCAASGRIFLYYTMGWYRQAPGKERELDAAITRSGGSTYYADSVKGRFTISRDNAKNTVYLQMNSLKPEDTAVYYCNRAYVRYVPMNYWGQGTQVTVSS | high polyreactivity
QVQLVESGGGLVQAGGSLRLSCAASGLIFAEYAMGWYRQAPGKERELVARITSGGSTDYADSVKGRFTISRDNAKNTVYLQMNRLKPEDTAVYYCSARYYSQDKNASTASDFDYWGQGTQVTVSS | low polyreactivity
QVQLVESGGGLVQAGGSLRLSCAASGYILDVYAMGWYRQAHGKEWELVAVITWRTDSTYYADSVKGRFTISRDNAKNTVYLQMNSLKPEDTAVYYCAKVLRLSKYRYYYWGQGTQVTVSS | high polyreactivity
QVQIVESGGGLVQAGGSLRLSCAASGRSYAINAMGSYRQAPGKERELDASITTRDSSTYYADSVKGRFTISRDNAKNTVYLHMNSLKPEDTAVYYCAKVKLVTYLYRLFVYGSYYWGQGTLVTVSS | low polyreactivity
QVQLVESGGGLVQAGGSLRLSCAASGYTFGGNAMGWYRQAPGKERELVAAISSGGSTNYADSVKGRFTISRDNAKNTVYLQMNSLKPEDTAVYYCNKRGYYYWSGQDVASYDYWGQGTQVTVSS | low polyreactivity
QVQLVESGGGLVQAGGSLRLSCAASGLTIWRYAMGWYRQAPGKEREFVATISQYGGRTYYAASVKGRFTITRDNAKKTVNLQMNSLKPEDTAVYYCAADDWRWGYDYWGPGTQVTVSS | high polyreactivity
QVQLVESGGGLVQAGGSLRLSCAASGSIFEVYAMGWYRQAPGKERELVAAINYTGGSTYYADSVKGRFTISRDNAKNTVYLQMNSLKPEDTAVYYCAVPRGVASLQKVEFGYWGQGTQVTVSS | low polyreactivity
QVQLVESGGGLVQAGGSLRLSCAASGNIFSDYAMGWYRPAPGKERELVAAISSGGNTNYADSVKGRFTISRDNAKNTVYLQMNSLKPEDTAVYYCAADPGYYVSAYDYWGQGTQVTVSS | low polyreactivity
QVQLVESGGGLVQAGGSLRLSCAASGYIFWSNTMGWYRQAPGKERELVAAISQSTASTYYADSVKGRFTISRDNAKNTVYLQMNSLKPEDTAVYYCAADDYIDGDDYWGQGTQVTVSS | low polyreactivity
QVQLVESGGGLVQAGGSLRLSCAASGNTFNSYAMGWYRQAPGKEREFVAAISGSGSSTYYADSVKGRFTISRDNAKNTVYLQMNSLKPEDTAVYYCAARWRYYGSFDYWGQGTQVTVSS | high polyreactivity
QVQLVESGGGLVQAGRSLRLSCAASGSIFGFYAMGCYRQAPGKERELVAASTVSDGTTYYADSVKGRFTISRDNAKNSFFFLMNSVKPEDTVVYYCAGDVFRQHEYYYWGQGTQVTVSS | low polyreactivity
QVQLVESGGGLVQAGGSLRLSCAASGFIFYIYAMGWYRQAPGKERELVAAFTSGGSTYYADSVKGRFTISRDNAKNTVYLQMNSLKPEDTAVYYCAAESYYGYDYWGQGTQVTVSS | low polyreactivity
QVQLVESGGGLVQAGGSLRLSCAASGGTFIRYAMALYRQAPGKERELVADITSSGDSTYYADSVKGRFTISRDNAKNTVYLPMNSLITEDTAVYYCATTHDYWLWGMGYWGQGTQVTVSS | high polyreactivity
QVQLVESGGGLVQAGGSLRLSCAASGPIFKRNAMGWYRQAPGKERELVAAISGSGGRTYYADSVKGRFTISRDNAKNTVYLQMNSLKPEDTAVYYCNAGGSYYARGMDYWGQGTQVTVSS | high polyreactivity
QVQLVESGGGLVQAGGSLRLSCAASGRLFKSYAMGWYRQAPGKERELVAAIRSGGSTYYADSVKGRFTISRDNAKNTVYLQMISLKPEDTAVYYCNRVTRTWTVTYHYWGQGTQVTVSS | high polyreactivity
QVQLVESGGGLVQAGGSLRLSCAASGLTFFGYTMGWYRQAPGKEREFVADITWSGGSTYYADSVKGRFTISRDNAKNTVYLQMNSLKPEVTAVYYCAVAPPNWDPFVDDTYLMDYWGQGTQVTLSS | low polyreactivity
QVQLVESGGGLVQAGGRLRLSCAASGRTFRYNAMGGSRQAPGKERELVAAISGGDSTYYADSEKGRFTFSRDNAKNTVYLQMNCLKPEDTAVYYCAGRTYRRRVSQSVSRNDYWGQGTQVTVSS | high polyreactivity
QVQLVESGGGLVQAGGSLRLSCAASGRILYCYTMGWYRQAPGKERELVAGITTRGGNTYYADSVKGRFTISRDNAKNSVYLQMNSLKPEDTAVYYCAARFSGPARMDYWGQGTQVTVSS | low polyreactivity
RLVQAGGSLRLSCAASGRIFGTYAMGWYRQAPGKERELVAAITQSGGRTYYADSVKGRFTISRDNAKNSVYLQMNSLKPEDTAVYYCNKVTYRGIGLGYDYWGQGTQVTVSS | high polyreactivity
QVQLVESGGGLVQAGGSLRLSCAASGFTFYKNTMGWYRQAPGNERELVAAISYRGGTYYADSVKGRFTISRDNAKTTVYLQMNSLKPEDTAVYYCNARYRGKYSSYGFWGHGTQVTVSS | high polyreactivity
